Measurements: a protein production outcome set (Wang et al. 2014)

Assay: label from the status in PepcDB records

Row | Sequence | protein production
1 | MFVIGIPTLNEADNISRLVKQIDEYAVNLGKEIIIINSDSKSTDGTPQIFLETKTYNTKVSIVSEAKGKGYNVRNIFEYAINHVPNFSGLILIDGDVVSMKKMWLEKMFIAIESGNDLIIPNYARKSFEGNATNHFIYPMLVKIFKRDMPYQCISGDFGFSRGLIKDLTLKCNWHKYTLGYGIDIFLTLTAILKSYKIKEIDLQSKIHKKSFEKIEKIFLEVSQSFFETINDNSLNQDKLRLNINFESHSRQFIKSSDILSSNDIENLKLRALFLLQEEKQYLHGLSEVEWDGILSNTINNIYRYSSEEHSLYLLPLYLLRVYNYLKYN | failed
2 | MCSLEKRDRLFILKLTGDGEHRLNPTLLDSLRSTINQIRSDPSFSQSVLITTSDGKFFSNGYDLALAESNPSLSVVMDAKLRSLVADLISLPMPTIAAVTGHASAAGCILAMSHDYVLMRRDRGFLYMSELDIELIVPAWFMAVIRGKIGSPAARRDVMLTAAKVTADVGVKMGIVDSAYGSAAETVEAAIKLGEEIVQRGGDGHVYGKMRESLLREVLIHTIGEYESGSSVVRSTGSKL | failed
3 | MDLLATRGDPVSDFSVGRVRGRHLAVPPIRHSAAPSNRHSEAPSSRARAADLDAIRLTGIAAVVVGHVWTSGPFTDALFAWHVPVFFILTGYLWKSGRTVRDEISRRSKTLLVPYVAWLAVLSVAFASVEYLRGGSLPVEALRNAVYGGAFAVRPYSAFWFVPVLFFTAVLFRWLERFPPWMAWIIAGLGLAASVFAGEVMAKTPLGIALAVPCLVFVLVGRALPAMVHRVRYKTAVGVGLVLAGVALTVGGVVQPLNMKDGDFGTVALSVVNASAISLGLILVFAALYRMVSPAVNRLTIQLASAGLVVVLTHAFFLYLLNTPASGSIFDAVVALAVPFALALLVLRSPLRRWLVG | failed
4 | MGIHKPKFYAVRAGRDKGVFSSWEECRKAIYGFSGAVYRSFPTLEEAQAWFKGETLSDPLKAEDDSLRDDRTEYDVYTDGSYVNGQYAWAYAFVKDGKVHYEDADVGKNPAAATMRNVAGEIAAALYAVKKASQLGVKIRILHDYAGIAFWATGEWKAKNEFTQAYAKLMNQYRGIYSFEKVKAHSGNEFNDYVDMKAKSALGIRDLEHHHHHH | failed
5 | MRLTGEIMKIITCFKLVPEEQDIVVTPEYTLNFDNADAKISQFDLNAIEAASQLATDDDEIAALTVGGSLLQNSKVRKDVLSRGPHSLYMVQDAQLEHALPLDTAKALATAVEKIGFDLLIFGEGSGDLYAQQVGLLVGELLQLPVINAVSAIQRQGNTLVIERTLEDDVEVIELSVPAVLCVTSDINVPRIPSMKAILGAGKKPVNQWQASDIGWSQSAPLAELTGIRVPPQTKRKHIILDNDSPEAIAELAEHLKKALN | failed
6 | MAKEVVYRGSARQRMMQGIEILARAAIPTLGATGPSVMIQHRADGLPPISTRDGVTVANSIVLKDRVANLGARLLRDVAGTMSREAGDGTTTAIVLARHIAREMFKSLAVGADPIALKRGIDRAVARVSEDIGARAWRGDKESVILGVAAVATKGEPGVGRLLLEALDAVGVHGAVSIELGQRREDLLDVVDGYRWEKGYLSPYFVTDRARELAELEDVYLLMTDREVVDFIDLVPLLEAVTEAGGSLLIAADRVHEKALAGLLLNHVRGVFKAVAVTAPGFGDKRPNRLLDLAALTGGRAVLEAQGDRLDRVTLADLGRVRRAVVSADDTALLGIPGTEASRARLEGLRLEAEQYRALKPGQGSATGRLHELEEIEARIVGLSGKSAVYRVGGVTDVEMKERMVRIENAYRSVVSALEEGVLPGGGVGFLGSMPVLAELEARDADEARGIGIVRSALTEPLRIIGENSGLSGEAVVAKVMDHANPGWGYDQESGSFCDLHARGIWDAAKVLRLALEKAASVAGTFLTTEAVVLEIPDTDAFAGFSAEWAAATREDPRV | failed
7 | MGAPPPANEDDRLAALHSYNILDTAPEPLYDDITAAAAQLCRTPMALISLIDQDRQWFKSRVGMQPAETPRDLAFCAHAILQPDQMMEVGDTFVDPRFARNALVTGGPQIRFYAGAPLLTSDGVALGTLCVLDRAPRTLSDAERTALQALARQVVTTIELRQAARLLEGDALRDPLTDLWNREGLEHMLEDAAPVAKLHGLAFVLIEIDGFKRLKLQFGSDAADATLVQAARCIETEPQEPGGVARIGAAHFCMVLPGADSAQALASVQRLQTTIAAACWPADTISITAGLVCVAPGEPLDSHVLMARARHALLGAARAGRNCVQRFDGWQTDR | failed
8 | MNLMRFLRRPISLRQRLILTIGAILLVFELISVFWLWHESTEQIQLFEQALRDNRNNDRHIMREIREAVASLIVPGVFMVSLTLFICYQAVRRITRPLAELQKELEARTADNLTPIAIHSATLEIEAVVSALNDLVSRLTSTLDNERLFTADVAHELRTPLAGVRLHLELLAKTHHIDVAPLVARLDQMMESVSQLLQLARAGQSFSSGNYQHVKLLEDVILPSYDELSTMLDQRQQTLLLPESAADITVQGDATLLRMLLRNLVENAHRYSPQGSNIMIKLQEDGGAVMAVEDEGPGIDESKCGELSKAFVRMDSRYGGIGLGLSIVSRITQLHHGQFFLQNRQETSGTRAWVRLKKDQNVANQI | failed
9 | MESWLFLLLIALIAFVAKNQSLLIASVVVLALKALPNSAKIMSWLSDKGINLGVTIISITILVPIATGQIGLKDLIQSFKTPMGWLGILCGILVAVLSSKGVGLINQSPEITVALVFGTILGVVFLKGIAAGPIIASGMMYVIITTFQAFQH | failed
10 | MKRKLLAILLSVSMIATLVTACGSKEVSDNSAKEEGVTVEDVKAALKDENAVVLDARTQDAYAGWSTENNKLGGHIESSSGFSAAWLTCEYDDEANDDNRTREERLEICMEDKGITADTKVIIYDENGKDAAAVSEYLSGKGVKDIETFNLADWDGELVKYENYQTILPPSIVKKLIDGETVEEVGEVKDLKVLEFSWGTEEESGYLEGHVPTAIHINSDDVDDENNIYVLDKDEILLETVKKAGVTVDSTVVVTGAGLFSCHLATILKYLGVEDVYIMSGGANGWTDAGYEAEKGSNTPVAVEDFGTDKPLNPDYIDDVEEVSLLLTDKNAQVIDTRAYKEFTGESSGYSYVEEAGRLNGAIFGQEDGSAQGPDCTGSSMMYYENIDGTMRDASEILEMWSNSNVDVNKHLSFYCGGGYRAAAVMWYAQAMGLEDTSLYNDGWAGWIVYGKDAVKGTYEDPQPVN | failed
11 | MQPQNIFDNEVFFQGYKKLRENPNSANILEEKPAIFSLLPELTGKKVLDLGCGYGENCNMFSKMGANKVVGIDVSSKMLAIANNDNSGDNIFYENMCMEDIFCINEKFDVVVSSLAVHYINDFNKLVCNVNSLLKDNGIFVFSQEHPLTTAPKNGARWFKNVDGRIAHYVLTDYATSGERTVSWIVDGITKYHRTFSDIVNALIDAGFIIEKMLEPVPTKEIIERDPSSAKDLHKPNFLVTRARKK | failed
12 | ATLKQLDGIHVTILHKEEGAGLGFSLAGGADLENKVITVHRVFPNGLASQEGTIQKGNEVLSINGKSLKGTTHHDALAILRQAREPRQAVIVTRKLTPEAMPDLNS | not failed
13 | MNWRRYNGRKKLAIIVPIYNVADYLKDCLNSLLKQGVPEKELQIILVDEGSTDNSAQIAQKFVEKYPNFFELHQFENAGLGAARNRGTRLARARFITYVDSDDIVAPNSYEYMLGILERTGSQIITGNVHRFNSKKEWLNNIHARSHLGDFENTSLKEHPELIWDSTSWNKIFCLDFLKENNLYFPEGVLYEDIPMINPAFAAAKSIDIVKRMVYLWRAREGSITESSTDAKAVLDRITITEIALAGLKKYNAPNEILDILYLKSLNLGIISMLRKEKYEYISLERKQELFNSLKEYLEKFPSDTLYQAKFDKLIYFDKVLKAKTQEEFDEITSKYLKNEIGFSGYWNDAGQYVLKSDYSDLEKIVTSDDLEIHPKIEEVVFEDDSLKIQGYFYAKYSDMSAPENVKILGISALSDDGNTINEIVGEKRNFENQRITAKFGYNLNHFVKDGADFNYDYSGYELKIPLNHLEFETTNSLAFVLEVEIDGLKFEVPIKNPISGDKPRPKVGLSNAQVFSVSYKTDWSLVLSLKERSVEELYFSEDGKELRIKGNATKIALKSGKTKLPLKLVGGRVMISQAVQEKIKSFDKSVFHWWQFITYVNGKEKSIYYSGFPKNFQNDSNLEILFSNNGVATLGISYLYPLVEKLQVEENVLKLAFSLKGWMTEATKVQIVADPTLSMIWETEKMNENLYQLSLPLTLDGFSDKEWLNFHVRLTFNDGYQTNELLRWGKKEFALKNEWVSANGIGWFFRSVEQKEHGAFAIKRTADRVFQEKVGNLEYVLQEKYQNWLKEPVLNDYIMMSSFWGRNNHFNDNPEALYRYIEKNYPNMTTIIVLKDAIRSYPEYPNAKIVSYGTADYWYYLARSKYFVNNVNFTEPPRIKREEQIEIQTMHGTPLKTLGFDVLGDWKDSTYNEVLRKNGNWDYLTVPSDWVANYALKAFRVSPQIIKSGYPRNDKLFIDYKM | failed
14 | MPKNDLLLRSLRGEPIGRFPVWLMRQAGRYMPEYRKIRNRVKNFLELCKNVDLATEISLLPLKILGVDAIIIFSDILVPLEPLGVKVEFVEGEGPKLSWSGKVSDLKKYDPSQNAYVYEIIKRVKEAQDEVPVIGFAGAPFTLLSYLIEGGASKDFKSTKLFMWENPKEYKRLMDILTETVLAYLKEQIKAGADVVQIFDSWVNNLSLEDYGEYVYPYVNYLISELKDFSDTPVIYFFRGSSSFIDLAVDYRADALSVDWSVDIPELFKIYDKGFQGNLEPAVLYASEEVIEEKTLGLLRRIPVKTRYVFNLGHGLAPDMELEKVKYLVDLVKSFPLT | not failed
15 | MRDPRLAPFRAPALAFAALLLVSAASGAVLFVLKLGTTAARVQEFYLGSEARFTAPRTLGGILEVAVPHLVAVPLVLFAVAHLVAFTRALRPRPYAALVRLSFGCALAGALAGLGIRFVAPWLAWVKIGAFVGLEAALLAWAALLVGLFLPDRAEAHARRAAAADGASPQRVPGAPRRD | failed
16 | MLDLQMKTAVIAVYKNAAFLEENVRLLQKEGFDVIVAADEPEESVREIIEKYSLRATVSERRRGKWRALNDAARIADGEELLFLDSDTIIKNLTGLNGADVVEVVKEVEGKGLLEKLVAVDYLVMAMCAKLASKFGSCLGVNGAAFLIKRRAFEELGGFRCKVNEDTELGIRAALGGYRFAVCGRAVTSVPKSIGEWFRQRERWSVGGTEVFVENLSAIIRKPRLWVPYLVLFYPAIFGLVISLFFTENYIAKLLYLVLPFLALISPKLASIAILAVYEMENVRNLVAGVASFVAWSGLILLASKKLGYRVDMKVLPIYYFIYSPLWTVICLISLVRVAVARVTGRKIELKDWVV | failed
17 | MKLQTTIQHEPKDGSGFDRGLREFFEYRDTGVNEATGGMFGAHVIRAIPGKEAKPTWHTHTVGFQLFYVLRGWVEFEYEDIGAVMLEAGGSAFQPPGVRHRELRHSDDLEVLEIVSPAGFATSVVDLEEARKP | not failed
18 | MISKVIEALAVFTTSVISSMGYGGIVLLMAIESACIPLPSEIIMPFAGYLVYRGEMTLHGAALAGAIGCVVGSIPAYYLGQFGGRPLIEKYGRYVLLSHKELDLADRLFQRWGQWVVFAGRLLPVVRTFIAFPAGVSRMPMGKFIAYTFVGSYPWCYALAWVGEWAGEAWHTDPRVKAVYHRFELVIVVAGVLAVAWFVWHKVKEARRARVPAAADEG | failed
19 | MKKFVTLLLCMLPVSLFAQVNDGIRQAMDNYDYETVVTLIEPDCQDSLLLITKAQALKAMNRYPEAIGVLNSLILKDSTNTKVLIDLAECYKLTGNSRRAANCYQKAMNLQPENKFFRLQFIRSLLASEDYEEARTACHGWLERDSLSATGYKYLGQAYEGLQDAASAFLSYNIAYRRDSLDAQTVARIAGIFNNNQQFKDAVDVTEVYRLSDTTNIDVNRQNAKAYCMLKEYGTAVKRYESLKELGDRSFLTLYYLGVSHYGDNWFYGAYDNLKEAYQKNPMDVNVLYYLAKASARTSWKKEGVEYMEEAFRIAVPSDSMMVRLYDGLVECYDYAGDTKKEVEALEKLYIYTKKNSILYKIACLYDWKEDEKNAIRYYRKYMATVSEDQRYALDEDGNPVEDRITLYQQAWKRIKKIKEEGFFRGDIPTKSFPVEKKDTLALRHAK | failed
